The values below come from patent publication US20210230279A1 (University of California, published 2021).

Positions count from the first letter of the chain named. Ends that are not written are not given here.

In experiment [1] the target is T1, human integrin αvβ8 on CHO cells (human, UniProt P06756 31-1048; P26012 43-769).
T1 construct: also called CHO cells expressing αvβ8; CHO lec cells stably transfected with αvβ8
Nature of the experiment: cell adhesion to coated peptide, crystal violet, signal above mock transfected cells (FIG. 25).

Experiment [2] concerns the target recombinant αvβ8 ectodomain (Homo sapiens (Human), UniProt P06756 31-992; P26012 43-684). As to the kind of experiment: ELISA, Mab coated at the given concentration, αvβ8 ectodomain 0.5 µg/ml, detected with biotinylated anti-αv 8B8 and SA-HRP; specific binding minus SV5 control. (ELISA stands for enzyme-linked immunosorbent assay.)
Excerpt: As a negative control, some wells were coated with anti-SV5 at the same concentrations. Non-specific binding sites were blocked with BSA.
Experiment [3] deals with T2, recombinant human integrin αvβ8 (human, UniProt P06756 31-992; P26012 43-684).
T2 construct: also called Human Integrin alpha V beta 8; purified recombinant αvβ8
Nature of the experiment: ELISA: integrin coated on plate, supernatant of transfected 293 cells at 1/10 dilution, anti-mouse IgG-HRP; score normalized to expression.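 Also: scale runs from 0 (no apparent binding) to 4 (robust binding), with scores adjusted for clone protein expression as determined by a murine IgG ELISA.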
Excerpt: (§1) Binding was quantified by intensity as 0-4 (0 representing no apparent binding; 4 representing robust binding) and results normalized to expression.

Experiment [4] has as its target T2, recombinant human integrin αvβ8. As to the kind of experiment: blocking of adhesion (A590) of Cho cells expressing GARP/LTGFB1 to immobilized αvβ8; antibody concentration varied; unit taken from the axis log[Agonist], (ug/ml).
Excerpt: (§2) Here, Cho3.2.8.1 cells were transfected with GARP and LTGFB1.
Experiment [5] has as its target T3, recombinant human integrin αvβ3 (human, UniProt P05106 27-718).
T3 construct: Bought; also called αvβ3 (R&D systems)
Nature of the experiment: ELISA on coated recombinant human integrin; 0 = no apparent binding.
Excerpt: as §1

The target in experiment [6] is T4, recombinant human integrin αvβ1 (human, UniProt P05556 21-728).
T4 construct: Bought; also called αvβ1 (R&D systems)
Described as above.
Excerpt: as §1

In experiment [7] the target is T5, recombinant human integrin αvβ5 (human, UniProt P18084 24-719).
T5 construct: Bought; also called αvβ5 (R&D systems)
Described as above.
Excerpt: as §1

The target in experiment [8] is T6, recombinant human integrin αvβ6 (human, UniProt P18564 22-707).
T6 construct: also called αvβ6 (R&D systems); αvβ6 receptor
Nature of the experiment: ELISA, Mab coated at 5 ug/ml, receptor 0.5 µg/ml in Mg buffer (1 mM Ca++ and 1 mM Mg++), detected with biotinylated anti-αv 8B8.
Description: (§3) Binding in EDTA containing buffer defines cation-dependence because EDTA binds to Ca⁺⁺ and Mg′. Magnesium cation buffers contains 1 mM Ca⁺⁺ and 1 mM Mg⁺⁺. Here, the results are relative to anti-av, clone 11D12V2. All antibodies were coated on ELISA plates at 5 μg/ml.

The target of experiment [9] is T2, recombinant human integrin αvβ8. Described as above.
Description: as §3
Experiment [10] has as its target T6, recombinant human integrin αvβ6. As to the kind of experiment: cell-based or functional assay.
Experiment [11] has the same target. Nature of the experiment: competition of RGD3 with 3G9 for binding to αvβ6 (sheet title: modest cross-competition); y axis 'Relative Inhibition of avb6 binding to TGFb3 peptide'; signal falls from about 1.0 only to about 0.55 at log 4.
For experiment [12] the target is unchanged. Nature of the experiment: blocking of adhesion (A590) of Cho cells expressing GARP/LTGFB1 to immobilized αvβ6; antibody concentration varied; unit taken from the axis log[Agonist], (ug/ml).
Excerpt: as §2
Experiment [13] has as its target T2, recombinant human integrin αvβ8. As to the kind of experiment: cell-based or functional assay.
Experiment [14] deals with T6, recombinant human integrin αvβ6. As to the kind of experiment: ELISA, Mab coated at 5 ug/ml, αvβ6 receptor 0.5 µg/ml, detected with biotinylated anti-αv 8B8; percent of binding to anti-αv clone 11D12V2.
Description: as §3
Experiment [15] concerns the target T7, truncated secreted form of αvβ8 fused in frame to alkaline phosphatase.
T7 construct: Printed: truncated secreted form; also called alkaline phosphatase (AP) αvβ8 fusion protein; secreted αvβ8
As to the kind of experiment: ELISA: inhibition of binding of secreted αvβ8-alkaline phosphatase to coated TGF-β3 RGD peptide (1 µg/ml), OD405; fitted value in the table under the graph; unit from the axis and paragraph 229.

Experiment [16] deals with T2, recombinant human integrin αvβ8. Nature of the experiment: Kinetic Exclusion Assay (KinExA), C6D4 as murine IgG2a. For orientation: A kinetic exclusion assay measures how much of one partner remains free in solution.
The target of experiment [17] is T3, recombinant human integrin αvβ3. As to the kind of experiment: ELISA, integrin coated, rabbit IgG detected with anti-rabbit HRP; relative to anti-αv (8B8) control wells.
Description: (§4) All integrins were coated on ELISA plates at 2 mg/ml, blocked with BSA, and antibodies were allowed to bind.
Experiment [18] addresses T6, recombinant human integrin αvβ6. The description is as above.
Description: as §4
For experiment [19], the target named is T5, recombinant human integrin αvβ5. The description is as above.
Description: as §4
Experiment [20] deals with T4, recombinant human integrin αvβ1. The experiment is described as above.
Description: as §4
The target of experiment [21] is T2, recombinant human integrin αvβ8. Nature of the experiment: scFv yeast display selection.
In experiment [22] the target is T6, recombinant human integrin αvβ6. Nature of the experiment: ELISA on coated recombinant human integrin; 0 = no apparent binding.
Excerpt: as §1
Experiment [23] deals with T2, recombinant human integrin αvβ8. As to the kind of experiment: scFv yeast display selection from random mutation libraries of clones 29 and 44.

T5 sequence (chain, as listed by the source limits assumed, chain 1 of 2): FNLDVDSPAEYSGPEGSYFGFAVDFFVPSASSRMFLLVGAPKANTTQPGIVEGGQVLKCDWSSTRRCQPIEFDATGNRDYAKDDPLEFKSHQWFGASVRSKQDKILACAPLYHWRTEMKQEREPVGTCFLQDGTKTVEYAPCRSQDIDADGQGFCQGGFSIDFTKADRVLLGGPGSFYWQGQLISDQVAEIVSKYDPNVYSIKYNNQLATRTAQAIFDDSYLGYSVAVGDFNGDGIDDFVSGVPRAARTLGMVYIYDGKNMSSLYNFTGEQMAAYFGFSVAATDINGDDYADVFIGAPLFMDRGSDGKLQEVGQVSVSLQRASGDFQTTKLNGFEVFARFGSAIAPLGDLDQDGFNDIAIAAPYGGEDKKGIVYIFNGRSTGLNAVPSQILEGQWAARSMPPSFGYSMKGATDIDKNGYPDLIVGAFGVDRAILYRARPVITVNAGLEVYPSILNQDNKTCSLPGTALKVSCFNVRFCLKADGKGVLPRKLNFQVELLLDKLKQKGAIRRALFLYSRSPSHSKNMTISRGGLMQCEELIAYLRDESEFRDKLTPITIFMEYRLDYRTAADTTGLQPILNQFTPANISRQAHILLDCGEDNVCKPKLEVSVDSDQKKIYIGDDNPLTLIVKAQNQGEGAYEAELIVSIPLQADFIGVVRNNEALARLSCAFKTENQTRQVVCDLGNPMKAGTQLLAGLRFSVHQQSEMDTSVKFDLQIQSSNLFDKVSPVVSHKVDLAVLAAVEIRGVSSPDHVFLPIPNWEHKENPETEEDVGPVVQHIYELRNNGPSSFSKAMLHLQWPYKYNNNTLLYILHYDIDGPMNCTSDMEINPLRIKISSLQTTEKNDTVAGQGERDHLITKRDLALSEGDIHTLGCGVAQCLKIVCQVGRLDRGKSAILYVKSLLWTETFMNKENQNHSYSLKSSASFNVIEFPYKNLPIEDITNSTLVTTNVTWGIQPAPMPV
T5 sequence (P18084 24-719 limits assumed, chain 2 of 2): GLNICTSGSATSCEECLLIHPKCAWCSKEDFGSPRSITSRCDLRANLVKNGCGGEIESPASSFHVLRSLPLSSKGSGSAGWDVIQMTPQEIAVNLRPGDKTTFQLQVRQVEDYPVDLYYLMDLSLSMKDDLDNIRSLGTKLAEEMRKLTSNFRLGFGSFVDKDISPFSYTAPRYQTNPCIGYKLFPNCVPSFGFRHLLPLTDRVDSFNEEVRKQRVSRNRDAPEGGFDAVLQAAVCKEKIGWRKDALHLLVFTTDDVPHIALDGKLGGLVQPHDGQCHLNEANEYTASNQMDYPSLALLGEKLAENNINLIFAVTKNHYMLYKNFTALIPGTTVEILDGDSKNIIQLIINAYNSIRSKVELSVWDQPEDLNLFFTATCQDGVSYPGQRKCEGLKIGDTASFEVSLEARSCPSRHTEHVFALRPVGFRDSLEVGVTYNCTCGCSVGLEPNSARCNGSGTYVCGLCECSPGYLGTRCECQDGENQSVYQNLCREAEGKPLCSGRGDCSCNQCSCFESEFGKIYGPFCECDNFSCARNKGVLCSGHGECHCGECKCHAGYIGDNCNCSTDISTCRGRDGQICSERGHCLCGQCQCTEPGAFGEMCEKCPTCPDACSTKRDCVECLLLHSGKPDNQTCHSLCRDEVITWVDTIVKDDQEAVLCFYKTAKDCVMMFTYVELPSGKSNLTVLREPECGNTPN
T3 sequence (chain, as listed by the source limits assumed, chain 1 of 2): as the sequence (chain, as listed by the source limits assumed, chain 1 of 2) above
T3 sequence (P05106 27-718 limits assumed, chain 2 of 2): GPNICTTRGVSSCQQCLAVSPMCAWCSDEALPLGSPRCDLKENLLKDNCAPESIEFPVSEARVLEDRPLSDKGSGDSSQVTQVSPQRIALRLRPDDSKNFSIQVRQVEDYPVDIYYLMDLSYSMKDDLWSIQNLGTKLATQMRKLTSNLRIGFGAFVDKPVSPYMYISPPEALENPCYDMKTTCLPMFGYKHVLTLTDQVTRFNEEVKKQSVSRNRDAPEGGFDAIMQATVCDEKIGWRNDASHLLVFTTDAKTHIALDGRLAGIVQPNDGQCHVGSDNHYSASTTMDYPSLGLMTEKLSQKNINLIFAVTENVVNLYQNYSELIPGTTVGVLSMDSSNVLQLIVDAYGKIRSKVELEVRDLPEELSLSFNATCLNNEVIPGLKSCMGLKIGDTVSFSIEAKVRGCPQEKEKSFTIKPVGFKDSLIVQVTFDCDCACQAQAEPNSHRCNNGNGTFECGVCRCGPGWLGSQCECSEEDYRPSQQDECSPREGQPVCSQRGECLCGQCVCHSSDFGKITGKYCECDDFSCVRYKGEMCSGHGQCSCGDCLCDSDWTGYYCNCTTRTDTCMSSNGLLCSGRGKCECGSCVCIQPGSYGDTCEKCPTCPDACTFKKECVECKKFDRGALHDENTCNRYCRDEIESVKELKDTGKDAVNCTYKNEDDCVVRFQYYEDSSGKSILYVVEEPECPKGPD
T6 sequence (chain, as listed by the source limits assumed, chain 1 of 2): as the sequence (chain, as listed by the source limits assumed, chain 1 of 2) above
T6 sequence (P18564 22-707 limits assumed, chain 2 of 2): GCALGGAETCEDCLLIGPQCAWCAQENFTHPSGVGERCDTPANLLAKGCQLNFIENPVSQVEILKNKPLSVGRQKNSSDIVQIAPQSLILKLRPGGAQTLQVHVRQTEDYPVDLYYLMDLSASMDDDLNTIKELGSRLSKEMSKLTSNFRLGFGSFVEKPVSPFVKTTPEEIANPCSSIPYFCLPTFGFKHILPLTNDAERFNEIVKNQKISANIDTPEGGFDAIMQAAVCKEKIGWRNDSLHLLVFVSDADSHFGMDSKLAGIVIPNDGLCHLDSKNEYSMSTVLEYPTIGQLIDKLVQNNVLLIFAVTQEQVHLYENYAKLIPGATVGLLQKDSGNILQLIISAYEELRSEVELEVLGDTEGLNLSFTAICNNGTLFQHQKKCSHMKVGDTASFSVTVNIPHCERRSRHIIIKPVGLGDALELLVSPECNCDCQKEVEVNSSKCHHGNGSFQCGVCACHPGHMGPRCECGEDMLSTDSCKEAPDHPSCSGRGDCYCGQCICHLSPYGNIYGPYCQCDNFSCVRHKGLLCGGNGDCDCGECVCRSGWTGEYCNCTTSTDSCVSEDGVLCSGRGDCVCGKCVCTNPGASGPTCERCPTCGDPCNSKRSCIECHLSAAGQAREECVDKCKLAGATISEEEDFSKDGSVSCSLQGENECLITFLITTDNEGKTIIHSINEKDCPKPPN

B1: TGF-β3 RGD multiple antigen presenting peptide DDHGRGDLGRLK (peptide)
peptide: DDHGRGDLGRLK
modifications: also: multiple antigen presenting peptide on 8-lysine core (branched)
notes: Branched peptide on a lysine core; also called L-TGF-b3 peptide; TGFb3 peptide
In the case of B1, the binding result in experiment [1] is recorded as “binds”.

B2: Humanized C6D4-RGD3 (HuC6D4-RGD3) (antibody, V domains shown)
VH: QIQLVQSGAEVKKPGASVKISCKASGYTFTDYSMHWVRQAPGQGLEWVARINTETGEPTFADDFRGRFTVTLDTSTSTAYLEIRSLRSDDTAVYFCAIFYYGRDTWGQGTTLTVSS
VL: EIVMTQSPATLSVSPGERVTMSCKSSQSLLGRGDLGRLKKNALAWYQQKPGQAPRLLIYWASTRESGVPARFSGSGSGTEFTLTISSVQSEDFAVYYCKQSYNLLSFGQGTVLEIKR
notes: Frameworks and CH1 are human; hinge and CH2-3 are mouse; also called humanized RGD3
Regarding B2, the binding result in experiment [2] is “binds”.

B3: C6D4-RGD3 (antibody, V domains shown)
VH: QIQLLQSGPELKKPGETVKISCKASGYTFTDYSMHWVKQAPGKGLKWVARINTETGEPTFADDFRGRFAVSLETSASTAYLQINNLKNEDTATYFCAIFYYGRDSWGQGTTLTVSS
VL: DIVMTQSPSSLAVSAGEKVTMSCKSSQSLLGRGDLGRLKKNALAWYQQKPGQSPRLLIYWASTRESGVPDRFTGSGSGTDFTLTISSVQAEDLAVYYCKQSYNLLSFGAGTKLELKR
notes: also called CD64-RGD3; C6 / RGD3
In general, EC50 refers to the concentration needed to bring the measured effect to its halfway point. As to B3, the “binding intensity score (0-4)” value in [3] was 4 score 0-4. Further, the half-maximal effective concentration (EC50) is 1.19 µg/mL in experiment [4] and 0.479 µg/mL in experiment [12]. The binding result in [5], in experiment [6] and in experiment [7] was “no binding (tested: supernatant at 1/10 dilution)” throughout. Further, the “Binding in Mg buffer relative to clone 68 (% compared with binding to anti-av clone 11D12V2)” value stood at 120% in experiment [8] and 98% in experiment [9]. Also, the “EC50 of inhibition of TGF-β activation (TMLC luciferase reporter) of GARP/LTGFB1 Cho cells on immobilized αvβ6; unit from the axis” value in experiment [10] turned out to be 0.412 µg/mL. Also, the LogEC50 in experiment [11] is 3.78 Log10 (ng/ml). Besides, in [13], the “EC50 of inhibition of TGF-β activation (TMLC luciferase reporter) of GARP/LTGFB1 Cho cells on immobilized αvβ8; unit from the axis” value is 0.854 µg/mL.

B4: C6D4 (composite antibody of C6 VH and D4 VK; murine IgG2a) (antibody, V domains shown)
VH: B3 VH
VL: DIVMTQSPSSLAVSAGEKVTMSCKSSQSLLNSRTRKNYLAWYQQKPGQSPRLLIYWASTRESGVPDRFTGSGSGTDFTLTISSVQAEDLAVYYCKQSYNLLSFGAGTKLELKR
notes: also called C6D4 murine IgG2a; Mab C6D4
Broadly, the IC50 is the concentration at which inhibition is half-maximal. High values mean lower potency, low ones higher potency. As a reminder, the Kd is a measure of binding affinity in units of concentration. With B4, the “binding intensity score (0-4)” value in experiment [3] was found to be 4 score 0-4. In addition, the concentration giving a half-maximal response (EC50) in experiment [4] worked out at 1.2 µg/mL. Further, the binding result in experiment [5] is recorded as “no binding (tested: supernatant at 1/10 dilution)”; in [6], “no binding (tested: supernatant at 1/10 dilution)”; in [7] it was “no binding (tested: supernatant at 1/10 dilution)”; in [14], “no binding (tested: 5 ug/ml (coated Mab))”. The “Binding in Mg buffer relative to clone 68 (% compared with binding to anti-av clone 11D12V2)” value in experiment [9] was determined as 103%. Moreover, in experiment [13], the “EC50 of inhibition of TGF-β activation (TMLC luciferase reporter) of GARP/LTGFB1 Cho cells on immobilized αvβ8; unit from the axis” value was determined as 1.04 µg/mL. This molecule also gave a half-inhibitory concentration (IC50) in experiment [15] of 0.494 µg/mL. For the same molecule, the dissociation constant Kd in experiment [16] is 832 pM.

B5: C6D4 as rabbit IgG (C6VH expressed with D4 Vk) (antibody, V domains shown)
VH: B3 VH
VL: B4 VL
notes: also called wildtype C6D4
Take B5: the binding result in experiment [17], in experiment [18] and in experiment [19] was “no binding” each time.

B6: C6D4-RGD3 as rabbit IgG (C6VH expressed with the RGD3 mutant Vk) (antibody, V domains shown)
VH: B3 VH
VL: B3 VL
notes: also called C6D4-RGD3 mutant
As for B6, the binding result in [17], in [20] and in experiment [19] was “no binding” throughout.

B7: clone 29 (scFv, yeast display) (scFv, V domains shown)
VH: B3 VH with F99Y
VL: B4 VL with T5S, S102T, R113A
notes: scFv on yeast
Regarding B7, the binding result in [21] was “binds”.

B8: C6 VH / RGD2 Vk murine IgG (antibody, V domains shown)
VH: B3 VH
VL: DIVMTQSPSSLAVSAGEKVTMSCKSSQSLLNSGRGDLGNALAWYQQKPGQSPRLLIYWASTRESGVPDRFTGSGSGTDFTLTISSVQAEDLAVYYCKQSYNLLSFGAGTKLELKR
notes: Murine IgG, supernatant of 293 cells; CDRL1 of the C6D4 murine IgG vector replaced by the printed loop, VH not altered; also called C6D4-RGD2; C6RGD2
On to B8, for which, in experiment [3], the “binding intensity score (0-4)” value was determined as 2 score 0-4. Besides, the binding result in experiment [5], in [6], in experiment [22] and in experiment [7] was “no binding (tested: supernatant at 1/10 dilution)” in each case.

B9: clone 44 (scFv, yeast display) (scFv, V domains shown)
VH: B3 VH with F99Y
VL: B4 VL with T5S, A86D, S102T, R113A
notes: scFv on yeast
B9: the binding result in experiment [21] is listed as “binds”.

B10: clone C6 (scFv, yeast display) (scFv, V domains shown)
VH: B3 VH with T111A
VL: B4 VL with T5S, S102T, R113A
notes: scFv on yeast; also called A5=C6
On to B10, for which the binding result in [23] was “binds”.

B11: C6 VH / RGD1 Vk murine IgG (antibody, V domains shown)
VH: B3 VH
VL: B4 VL with N31G, S32R, R33G, T34D, R35L, K36G, Y38A
notes: Murine IgG, supernatant of 293 cells; CDRL1 swap into the C6D4 murine IgG vector, VH not altered; also called C6D4-RGD1; C6RGD1
B11: the “binding intensity score (0-4)” value in experiment [3] was found to be 1 score 0-4. The binding result in experiment [5], in experiment [6], in experiment [22] and in experiment [7] was “no binding (tested: supernatant at 1/10 dilution)” in each case.
